The record followed here is patent US20080213817A1 (published 2008).

For this test, the target named is T1, mitogen-activated protein kinase/ERK kinase kinase 1 (MEKK1) (mouse, UniProt P53349 2-1493).
T1 construct: Endogenous protein co-immunoprecipitated from mouse thymocyte / T cell lysates, not a recombinant construct; also called MEK kinase 1; MAPK/ERK kinase kinase 1
T1 sequence (looked up): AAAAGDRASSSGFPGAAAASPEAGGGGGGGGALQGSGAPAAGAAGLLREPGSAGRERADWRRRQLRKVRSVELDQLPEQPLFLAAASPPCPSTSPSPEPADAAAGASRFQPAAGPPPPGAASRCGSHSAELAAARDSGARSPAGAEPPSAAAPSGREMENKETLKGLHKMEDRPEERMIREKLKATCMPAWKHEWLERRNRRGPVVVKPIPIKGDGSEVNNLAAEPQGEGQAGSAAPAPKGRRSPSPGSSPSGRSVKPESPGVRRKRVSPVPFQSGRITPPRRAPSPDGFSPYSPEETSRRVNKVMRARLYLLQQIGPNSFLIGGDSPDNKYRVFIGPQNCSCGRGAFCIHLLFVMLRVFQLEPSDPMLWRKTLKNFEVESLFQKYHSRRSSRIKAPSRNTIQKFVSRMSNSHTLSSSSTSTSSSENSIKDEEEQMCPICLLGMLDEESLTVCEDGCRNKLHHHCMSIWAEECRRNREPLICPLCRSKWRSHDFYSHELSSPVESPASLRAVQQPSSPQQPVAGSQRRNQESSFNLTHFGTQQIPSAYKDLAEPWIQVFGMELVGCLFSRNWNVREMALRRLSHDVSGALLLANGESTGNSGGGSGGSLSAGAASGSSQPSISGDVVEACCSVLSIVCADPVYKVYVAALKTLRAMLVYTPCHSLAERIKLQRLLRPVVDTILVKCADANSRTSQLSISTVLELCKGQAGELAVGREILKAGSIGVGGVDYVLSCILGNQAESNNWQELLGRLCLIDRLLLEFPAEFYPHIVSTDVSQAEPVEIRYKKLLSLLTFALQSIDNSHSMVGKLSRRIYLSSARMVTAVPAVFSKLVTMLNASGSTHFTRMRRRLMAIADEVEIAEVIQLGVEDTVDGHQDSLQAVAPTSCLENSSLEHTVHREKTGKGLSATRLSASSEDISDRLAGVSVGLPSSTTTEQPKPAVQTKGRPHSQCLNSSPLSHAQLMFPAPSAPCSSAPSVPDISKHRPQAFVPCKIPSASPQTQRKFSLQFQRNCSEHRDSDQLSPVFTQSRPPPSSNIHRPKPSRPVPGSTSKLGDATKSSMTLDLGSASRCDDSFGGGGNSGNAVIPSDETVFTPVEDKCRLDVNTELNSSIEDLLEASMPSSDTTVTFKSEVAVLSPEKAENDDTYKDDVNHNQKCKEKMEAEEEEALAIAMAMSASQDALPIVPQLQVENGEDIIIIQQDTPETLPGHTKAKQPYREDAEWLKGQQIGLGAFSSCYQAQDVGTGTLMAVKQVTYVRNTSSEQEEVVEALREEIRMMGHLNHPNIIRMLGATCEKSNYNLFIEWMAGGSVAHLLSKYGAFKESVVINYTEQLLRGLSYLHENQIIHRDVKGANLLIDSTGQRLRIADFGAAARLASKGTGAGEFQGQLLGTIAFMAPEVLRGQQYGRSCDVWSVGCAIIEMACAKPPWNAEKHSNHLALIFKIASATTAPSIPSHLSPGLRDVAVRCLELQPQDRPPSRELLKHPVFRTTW
The experiment in a line: co-immunoprecipitation (summary of the results).

B1: E3 ubiquitin ligase Itch (enzyme)
chain: not shown
notes: Endogenous protein from mouse thymocytes / T cells; also called Itchy E3 ubiquitin protein ligase; AIP4
With B1, the binding result is “binds”.
